Assays:
MYB44 S145D = MYB44 S145D (Arabidopsis thaliana? (Arabidopsis, …, UniProt Q9FDW1 1-305, S145D)); experiment: EMSA; no discernible difference from wild type; 10 mM Tris pH 8.0, 5 mM MgCl2, 100 mM KCl, 0.02% Triton X-100, 0.1 mg/ml BSA, 0.25% Tween, 2.5 mM DTT, 3 ng/ul poly(dIdC); 30 min room temperature; 5% PAGE in 0.5x TBE or TAE (TAE main) at 4 C; conditions: protein: recombinant; label: 5' Dy782 (Methods; called IRDye in Results); (only one strand printed)
MYB44 S145A = MYB44 S145A (Arabidopsis thaliana? (Arabidopsis, …, UniProt Q9FDW1 1-305, S145A)); experiment: as above; conditions: protein: recombinant; label: 5' Dy782 (Methods; called IRDye in Results); (only one strand printed)
Chain of MYB44 S145A (Arabidopsis thaliana? (Q9FDW1 whole entry S145A): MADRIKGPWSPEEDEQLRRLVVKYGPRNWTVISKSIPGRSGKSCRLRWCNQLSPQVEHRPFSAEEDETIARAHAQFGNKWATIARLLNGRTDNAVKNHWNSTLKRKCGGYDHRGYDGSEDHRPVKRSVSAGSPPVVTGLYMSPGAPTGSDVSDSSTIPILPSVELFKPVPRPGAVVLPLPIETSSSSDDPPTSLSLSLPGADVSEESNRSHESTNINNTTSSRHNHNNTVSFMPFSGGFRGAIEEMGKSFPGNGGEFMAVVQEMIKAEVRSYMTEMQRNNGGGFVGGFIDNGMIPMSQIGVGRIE

Chain of MYB44 S145D (Arabidopsis thaliana? (Q9FDW1 whole entry S145D): as the sequence (Q9FDW1 whole entry S145A) above, with A145D counted along it

B1: MBSII (dsDNA)
DNA 1: AGCTTCAAAAGTTAGTTACG
DNA 2: CGTAACTAACTTTTGAAGCT
What does the source list for B1?
binding result (MYB44 S145D): binds; binding result (MYB44 S145A): binds
